Laboratory results taken from the supplement of paper PMC10065799, “High-throughput profiling of sequence recognition by tyrosine kinases and SH2 domains using bacterial peptide display” (eLife, 2023).

Assays:
[1] = molecular target: SHP2-C SH2; test: SH2 binding enrichment of the phosphorylated peptide, bacterial display (enrichment ratio); higher = better substrate or ligand; peptides without Tyr show the background
[2] = molecular target: Grb2 SH2 (UniProt P62993); test: as above
[3] = molecular target: c-Src SH2; test: as above
[4] = test system: c-Src; test: phosphorylation enrichment, bacterial display (enrichment ratio); higher = better substrate or ligand; peptides without Tyr show the background
[5] = molecular target: FGFR3 (UniProt P22607); test: as above
[6] = test system: Fer (mouse); test: as above
[7] = test system: c-Abl (mouse); test: as above
[8] = molecular target: EPHB2 (UniProt P29323); test: as above
EPHB2, sequence (P29323 whole entry, looked up): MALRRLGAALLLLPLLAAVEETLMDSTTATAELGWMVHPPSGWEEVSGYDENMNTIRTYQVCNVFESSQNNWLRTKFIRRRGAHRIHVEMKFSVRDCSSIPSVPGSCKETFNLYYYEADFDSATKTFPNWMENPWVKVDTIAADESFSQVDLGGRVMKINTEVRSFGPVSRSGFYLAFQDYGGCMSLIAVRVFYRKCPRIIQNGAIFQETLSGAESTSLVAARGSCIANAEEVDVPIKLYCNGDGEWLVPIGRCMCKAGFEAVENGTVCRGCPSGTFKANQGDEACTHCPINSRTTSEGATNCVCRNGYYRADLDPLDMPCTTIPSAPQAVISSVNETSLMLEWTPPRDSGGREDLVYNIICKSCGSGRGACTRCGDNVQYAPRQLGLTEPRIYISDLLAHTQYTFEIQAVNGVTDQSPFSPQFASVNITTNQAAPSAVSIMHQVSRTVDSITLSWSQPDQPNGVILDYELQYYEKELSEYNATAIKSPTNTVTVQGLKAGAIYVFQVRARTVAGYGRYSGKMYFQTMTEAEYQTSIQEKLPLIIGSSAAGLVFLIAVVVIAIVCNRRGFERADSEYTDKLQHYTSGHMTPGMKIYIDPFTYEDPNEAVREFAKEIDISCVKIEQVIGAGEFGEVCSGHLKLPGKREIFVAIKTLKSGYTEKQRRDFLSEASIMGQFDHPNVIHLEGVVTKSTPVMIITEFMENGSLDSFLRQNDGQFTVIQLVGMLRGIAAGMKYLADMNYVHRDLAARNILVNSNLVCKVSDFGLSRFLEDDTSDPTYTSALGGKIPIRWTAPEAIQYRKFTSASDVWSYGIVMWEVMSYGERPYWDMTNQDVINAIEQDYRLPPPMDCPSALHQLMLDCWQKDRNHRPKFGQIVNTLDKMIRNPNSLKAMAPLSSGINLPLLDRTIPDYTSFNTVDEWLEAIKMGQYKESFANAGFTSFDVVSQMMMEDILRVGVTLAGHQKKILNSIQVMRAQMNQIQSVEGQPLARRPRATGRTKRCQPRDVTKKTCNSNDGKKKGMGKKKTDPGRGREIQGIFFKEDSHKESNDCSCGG

[9] = molecular target: Fes (UniProt P07332); test: as above
Fes, sequence (P07332 whole entry, looked up): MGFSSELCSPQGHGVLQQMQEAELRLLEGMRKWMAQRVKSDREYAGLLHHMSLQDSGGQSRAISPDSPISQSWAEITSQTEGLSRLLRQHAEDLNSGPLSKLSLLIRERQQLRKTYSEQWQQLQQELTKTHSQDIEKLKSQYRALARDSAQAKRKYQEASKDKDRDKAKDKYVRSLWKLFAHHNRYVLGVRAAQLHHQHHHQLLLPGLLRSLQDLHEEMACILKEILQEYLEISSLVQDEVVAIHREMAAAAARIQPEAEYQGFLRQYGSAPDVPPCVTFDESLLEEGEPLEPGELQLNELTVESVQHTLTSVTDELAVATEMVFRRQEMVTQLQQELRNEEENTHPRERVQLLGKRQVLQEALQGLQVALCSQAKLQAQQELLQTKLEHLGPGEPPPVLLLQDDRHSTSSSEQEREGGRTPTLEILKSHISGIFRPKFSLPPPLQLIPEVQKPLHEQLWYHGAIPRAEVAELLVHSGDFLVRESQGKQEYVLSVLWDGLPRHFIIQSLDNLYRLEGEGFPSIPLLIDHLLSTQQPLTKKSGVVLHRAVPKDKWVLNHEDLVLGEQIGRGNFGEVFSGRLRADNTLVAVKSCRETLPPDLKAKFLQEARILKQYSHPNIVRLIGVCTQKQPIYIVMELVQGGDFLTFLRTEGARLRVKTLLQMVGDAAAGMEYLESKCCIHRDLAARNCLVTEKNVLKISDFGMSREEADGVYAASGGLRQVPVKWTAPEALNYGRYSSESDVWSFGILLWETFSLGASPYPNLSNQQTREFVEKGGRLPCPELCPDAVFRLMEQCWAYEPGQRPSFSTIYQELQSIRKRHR

[10] = molecular target: MERTK (UniProt Q12866); test: as above
MERTK, sequence (Q12866 whole entry, looked up): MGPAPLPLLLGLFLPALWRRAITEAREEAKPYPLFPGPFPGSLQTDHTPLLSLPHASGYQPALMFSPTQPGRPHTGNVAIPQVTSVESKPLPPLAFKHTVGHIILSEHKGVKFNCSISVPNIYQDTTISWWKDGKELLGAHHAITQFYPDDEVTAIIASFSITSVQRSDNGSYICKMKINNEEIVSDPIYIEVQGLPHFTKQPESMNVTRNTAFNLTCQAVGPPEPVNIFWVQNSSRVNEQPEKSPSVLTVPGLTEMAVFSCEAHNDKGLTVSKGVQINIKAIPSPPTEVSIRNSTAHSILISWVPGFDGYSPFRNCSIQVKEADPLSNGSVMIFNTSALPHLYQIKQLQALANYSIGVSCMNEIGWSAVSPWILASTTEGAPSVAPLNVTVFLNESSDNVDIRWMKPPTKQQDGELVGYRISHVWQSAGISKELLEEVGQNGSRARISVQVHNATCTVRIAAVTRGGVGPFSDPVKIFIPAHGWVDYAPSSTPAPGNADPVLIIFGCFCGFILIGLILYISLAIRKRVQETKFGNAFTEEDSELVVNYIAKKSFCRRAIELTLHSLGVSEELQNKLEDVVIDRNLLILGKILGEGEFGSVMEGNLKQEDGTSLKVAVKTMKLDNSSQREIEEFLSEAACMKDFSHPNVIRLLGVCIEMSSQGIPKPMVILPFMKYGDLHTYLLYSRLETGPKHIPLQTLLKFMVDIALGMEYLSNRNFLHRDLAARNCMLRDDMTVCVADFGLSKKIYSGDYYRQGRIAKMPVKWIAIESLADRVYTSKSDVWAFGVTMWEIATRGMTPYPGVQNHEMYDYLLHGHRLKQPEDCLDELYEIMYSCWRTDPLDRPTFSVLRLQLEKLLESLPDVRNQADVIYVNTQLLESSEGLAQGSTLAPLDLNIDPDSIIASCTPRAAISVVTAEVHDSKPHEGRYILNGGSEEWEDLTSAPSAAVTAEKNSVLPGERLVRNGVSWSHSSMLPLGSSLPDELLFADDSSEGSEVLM

[11] = test system: AncSZ; test: as above
[12] = molecular target: EPHB1 (UniProt P54762); test: as above
[13] = molecular target: Jak2 (UniProt O60674); test: as above
[14] = molecular target: Hck (UniProt P08631); test: as above
Hck, sequence (P08631 whole entry, looked up): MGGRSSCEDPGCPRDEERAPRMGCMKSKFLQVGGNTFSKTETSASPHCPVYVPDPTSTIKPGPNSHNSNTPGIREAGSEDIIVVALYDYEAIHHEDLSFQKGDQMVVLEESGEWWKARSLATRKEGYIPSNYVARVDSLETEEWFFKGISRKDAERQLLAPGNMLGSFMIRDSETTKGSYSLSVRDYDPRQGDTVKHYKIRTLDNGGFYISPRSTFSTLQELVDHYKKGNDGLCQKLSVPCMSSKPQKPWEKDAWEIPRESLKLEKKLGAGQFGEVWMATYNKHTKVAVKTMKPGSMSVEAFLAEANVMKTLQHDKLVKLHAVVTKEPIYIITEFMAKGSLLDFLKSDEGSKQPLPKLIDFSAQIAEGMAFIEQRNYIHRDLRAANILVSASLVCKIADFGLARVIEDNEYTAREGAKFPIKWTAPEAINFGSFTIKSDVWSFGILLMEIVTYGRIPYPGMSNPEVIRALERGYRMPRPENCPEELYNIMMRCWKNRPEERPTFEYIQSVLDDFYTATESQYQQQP

[15] = molecular target: Fyn (UniProt P06241); test: as above
Fyn, sequence (P06241 whole entry, looked up): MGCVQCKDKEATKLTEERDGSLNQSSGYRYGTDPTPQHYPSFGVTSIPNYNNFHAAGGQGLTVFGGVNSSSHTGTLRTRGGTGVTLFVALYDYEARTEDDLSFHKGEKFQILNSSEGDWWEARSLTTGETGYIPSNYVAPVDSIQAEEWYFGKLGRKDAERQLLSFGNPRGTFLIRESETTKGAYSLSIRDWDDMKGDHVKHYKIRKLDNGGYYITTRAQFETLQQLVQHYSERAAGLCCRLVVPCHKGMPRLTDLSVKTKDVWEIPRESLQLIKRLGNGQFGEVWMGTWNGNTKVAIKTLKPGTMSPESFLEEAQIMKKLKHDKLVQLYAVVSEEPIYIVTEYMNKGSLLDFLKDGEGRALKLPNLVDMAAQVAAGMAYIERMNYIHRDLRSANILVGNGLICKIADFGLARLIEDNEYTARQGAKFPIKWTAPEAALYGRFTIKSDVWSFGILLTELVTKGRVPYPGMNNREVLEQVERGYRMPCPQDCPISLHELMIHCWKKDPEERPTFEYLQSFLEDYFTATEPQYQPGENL

[16] = molecular target: FGFR1 (UniProt P11362); test: as above
FGFR1, sequence (P11362 whole entry, looked up, the tested form may be a part): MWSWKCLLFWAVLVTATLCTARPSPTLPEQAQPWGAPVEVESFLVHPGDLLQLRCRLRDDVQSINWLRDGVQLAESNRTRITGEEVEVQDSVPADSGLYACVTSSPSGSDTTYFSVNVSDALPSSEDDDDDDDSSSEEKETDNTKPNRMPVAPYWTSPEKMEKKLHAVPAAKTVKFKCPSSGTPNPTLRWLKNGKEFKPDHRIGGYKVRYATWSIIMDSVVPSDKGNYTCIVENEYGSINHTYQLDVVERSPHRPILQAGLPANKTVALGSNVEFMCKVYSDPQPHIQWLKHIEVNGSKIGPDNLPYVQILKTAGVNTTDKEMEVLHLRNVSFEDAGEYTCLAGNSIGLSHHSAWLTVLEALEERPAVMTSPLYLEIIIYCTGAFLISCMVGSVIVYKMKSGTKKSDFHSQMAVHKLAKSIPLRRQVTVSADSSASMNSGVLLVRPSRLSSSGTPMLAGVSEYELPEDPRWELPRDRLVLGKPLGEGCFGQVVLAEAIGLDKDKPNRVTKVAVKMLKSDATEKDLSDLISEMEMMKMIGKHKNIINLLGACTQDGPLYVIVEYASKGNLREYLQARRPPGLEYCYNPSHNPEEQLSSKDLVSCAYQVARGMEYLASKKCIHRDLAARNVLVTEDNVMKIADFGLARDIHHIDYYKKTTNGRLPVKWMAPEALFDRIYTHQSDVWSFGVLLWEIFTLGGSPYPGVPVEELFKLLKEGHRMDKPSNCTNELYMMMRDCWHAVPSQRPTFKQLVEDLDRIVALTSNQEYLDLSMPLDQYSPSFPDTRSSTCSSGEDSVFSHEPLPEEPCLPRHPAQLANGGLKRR
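Throughout, for SH2 binding enrichment of the phosphorylated peptide, bacterial display: peptide library displayed on the E. coli surface as eCPX fusions, selected cells deep-sequenced, score is each peptide's frequency after selection divided by its frequency in the input.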
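Throughout, for phosphorylation enrichment, bacterial display: 11-residue human phosphosite peptides and single-mutation variants displayed on the E. coli surface, counted by deep sequencing, each peptide's frequency after selection divided by its frequency in the unselected input library; frequency after pTyr selection over input frequency; kinase dosed for 20-30% of maximal phosphorylation in three min.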

Grb2 SH2, sequence (P62993 whole entry, looked up): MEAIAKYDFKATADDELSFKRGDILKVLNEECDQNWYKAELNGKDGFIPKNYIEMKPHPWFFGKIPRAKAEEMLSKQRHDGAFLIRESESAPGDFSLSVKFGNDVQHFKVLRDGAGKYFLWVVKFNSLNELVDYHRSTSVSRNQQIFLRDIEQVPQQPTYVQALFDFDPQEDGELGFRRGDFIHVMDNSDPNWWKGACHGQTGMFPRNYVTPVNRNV

Sequence	SH2 binding enrichment [1]	SH2 binding enrichment [2]	SH2 binding enrichment [3]	phosphorylation enrichment [4]	phosphorylation enrichment [5]	phosphorylation enrichment [6]	phosphorylation enrichment [7]	phosphorylation enrichment [8]	phosphorylation enrichment [9]	phosphorylation enrichment [10]	phosphorylation enrichment [11]	phosphorylation enrichment [12]	phosphorylation enrichment [13]	phosphorylation enrichment [14]	phosphorylation enrichment [15]	phosphorylation enrichment [16]
SVNCTYSPALN [TP53_Y126_T123N]	0.544	0.722	0.381	0.849	0.725	0.521	0.622	0.613	1.01	0.478	0.957	0.654	0.77	0.851	0.735	0.484
SVTCTYPPALN [TP53_Y126_S127P]	0.617	0.865	0.448	0.485	0.578	0.473	0.97	0.578	0.873	0.477	0.886	0.471	1.07	0.557	0.448	0.502
SVTCTYSLALN [TP53_Y126_P128L]	0.781	0.956	0.503	1.65	0.802	0.558	0.951	0.6	1.38	0.614	1.21	0.688	1.13	0.628	0.78	0.653
SVTWTYSPALN [TP53_Y126_C124W]	0.492	0.567	0.319	0.347	0.862	0.532	0.698	0.786	1.11	0.289	1.31	0.569	0.986	0.467	0.387	0.461
SVVVPYDPPEV [TP53_Y220_E221D]	0.827	0.684	0.855	0.499	0.711	0.465	0.629	0.51	1.08	0.373	1.02	0.543	1.01	0.488	0.48	0.56
SWSTSYSGFRF [NKAPL_Y91_YF]	1.55	1.13	0.774	1.69	0.719	1.61	0.728	0.663	1.38	0.535	1.17	0.588	0.821	0.858	0.739	0.637
SWSTSYSGYRY [NKAPL_Y91]	1.88	1.17	1.03	1.7	0.656	0.591	0.652	0.619	0.925	0.461	0.825	0.596	0.741	0.701	0.706	0.707
SYCYRYCCAAR [SUMF1_Y344_R345C]	0.627	1.13	0.931	0.369	0.769	0.457	0.622	0.553	0.976	0.437	0.968	0.392	0.679	0.497	0.43	0.47
SYCYRYRCAAQ [SUMF1_Y344_R349Q]	1.43	1.42	1.5	0.399	0.464	0.346	0.471	0.424	0.599	0.515	0.768	0.382	0.599	0.5	0.419	0.499
SYTDPYAQPPL [KMT2D_Y2378]	0.661	0.91	1.02	0.587	2.16	0.489	0.666	0.482	0.902	0.52	0.927	0.591	0.681	0.473	0.496	3.08
TAALWYIFLHT [ENG_Y612_S615L_YF]	1.09	0.98	0.593	0.508	1.2	0.577	1.24	0.939	1.86	0.555	1.32	0.832	1.48	0.689	0.555	0.845
TAGFIYEKWEI [TEC_Y360_S359I]	1.24	0.794	0.761	4.11	0.804	11.6	1.12	1.45	1.72	4.47	1.45	1.35	1.24	3.79	2.78	0.474
TALFIYIRPKA [OR10C1_Y258]	0.721	0.891	0.494	0.304	0.712	0.508	0.624	0.697	1.22	0.388	1.23	0.406	0.945	0.523	0.55	0.556
TDLAYYLVCKG [ASL_Y376_R379C]	0.829	0.959	0.461	0.825	2.33	0.581	0.903	0.66	1.57	0.79	1.46	0.883	1.74	0.75	0.689	2.39
TEFIQYMRRKN [MAX_Y73_YF]	0.54	0.675	0.387	0.521	0.486	0.51	0.404	0.732	0.629	0.472	0.701	0.44	0.594	0.458	0.547	0.367
TENAGYFFRVS	0.583	0.724	0.466	0.41	0.853	0.536	1.15	0.565	1.36	0.369	1.25	0.614	1.45	0.457	0.389	0.442
